Measurements taken from patent US20150191542A1 (INNATE PHARMA S A, published 2015).

T1: MICA*004 expressed on C1R transfectant cells (human, UniProt Q29983 24-297, Glycosylated on cells; the letters do not carry this.)
T1 construct: also called C1R-MICA*004; C1R-MICA*04
T1 chain: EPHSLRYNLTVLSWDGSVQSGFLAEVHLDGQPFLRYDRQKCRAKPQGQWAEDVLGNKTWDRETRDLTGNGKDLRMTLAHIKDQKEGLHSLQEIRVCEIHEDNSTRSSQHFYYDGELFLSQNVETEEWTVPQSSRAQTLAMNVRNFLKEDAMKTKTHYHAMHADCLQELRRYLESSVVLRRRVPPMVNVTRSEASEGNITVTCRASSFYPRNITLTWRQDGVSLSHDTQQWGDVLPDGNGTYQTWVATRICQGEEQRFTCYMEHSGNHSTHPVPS

T2: MICA*001 extracellular domain recombinant protein (full extracellular domain with a BirA or a Poly-His Tag) (human, UniProt Q29983 24-297)
T2 construct: it may be the same as MICA*001-His; also called MICA extracellular domain recombinant protein; not shown: BirA or poly-His tag
T2 sequence: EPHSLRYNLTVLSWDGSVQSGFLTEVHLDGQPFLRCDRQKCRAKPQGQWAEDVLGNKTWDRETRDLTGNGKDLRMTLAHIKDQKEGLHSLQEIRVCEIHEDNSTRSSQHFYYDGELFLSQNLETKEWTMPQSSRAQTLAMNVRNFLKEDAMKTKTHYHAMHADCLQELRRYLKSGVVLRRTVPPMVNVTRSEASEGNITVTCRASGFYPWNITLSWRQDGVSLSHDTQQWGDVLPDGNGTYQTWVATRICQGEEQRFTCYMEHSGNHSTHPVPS

T3: MICA*001 expressed on transfected cells (human)
T3 construct: the cells carry the complete allele; also called C1R-MICA*001; C1R-MICA*01
T3 chain: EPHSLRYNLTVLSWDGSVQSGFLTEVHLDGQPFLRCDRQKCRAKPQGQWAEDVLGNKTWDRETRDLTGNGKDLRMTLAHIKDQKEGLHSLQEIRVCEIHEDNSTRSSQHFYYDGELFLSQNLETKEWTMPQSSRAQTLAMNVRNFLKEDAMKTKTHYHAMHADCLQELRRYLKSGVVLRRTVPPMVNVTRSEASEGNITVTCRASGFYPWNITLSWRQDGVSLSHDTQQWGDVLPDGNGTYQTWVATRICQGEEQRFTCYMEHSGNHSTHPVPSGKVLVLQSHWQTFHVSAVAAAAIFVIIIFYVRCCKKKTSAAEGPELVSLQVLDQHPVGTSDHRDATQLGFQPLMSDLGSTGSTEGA

T4: MICA*007 expressed on C1R transfectant cells (human, UniProt Q29983 24-297, Glycosylated on cells; the letters do not carry this.)
T4 construct: also called C1R-MICA*007; C1R-MICA*07
T4 chain: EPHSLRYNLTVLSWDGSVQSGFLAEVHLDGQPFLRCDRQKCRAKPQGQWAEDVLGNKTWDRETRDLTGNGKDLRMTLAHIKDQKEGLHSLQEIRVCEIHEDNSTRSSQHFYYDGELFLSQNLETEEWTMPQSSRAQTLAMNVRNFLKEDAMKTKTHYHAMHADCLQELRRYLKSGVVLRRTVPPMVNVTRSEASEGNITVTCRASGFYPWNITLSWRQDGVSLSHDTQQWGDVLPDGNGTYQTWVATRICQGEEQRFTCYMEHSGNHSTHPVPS


Experiments:
[1] = biological target: T1, MICA*004 expressed on C1R transfectant …; test: flow cytometry on C1R-MICA*004 cells, 3-parameter logistic fit
Protocol: (§1) The binding of antibodies obtained from the first and second immunization series (including 9C10, 20C6 and 16A8) were tested for binding to MICA-expressing CR1 transfectant cells C1R-MICA*001, C1R-MICA*004, C1R-MICA*007 and C1R-MICA*008 (Pr. A. Steinle, Eberhard-Karls University Tuebingen, Germany) described in Salih et al. (2003) Blood 102(4): […]. Binding was analyzed by flow cytometry.
(§2) Cells were harvested and stained in PBS 1×/BSA 0,2%/EDTA 2 mM buffer during 30 minutes at 4° C. using a dose-range of the anti-MICA mAbs. After two washes in staining buffer, cells were stained for 30 min at 4° C. with goat anti-mouse (H+L)-PE polyclonal antibodies (1/200). After two washes, stainings were acquired on a BD FACS Canto II and analyzed using the FlowJo software.
(§3) Antibodies 9C10, 20C6 and 16A8 bound to each of the C1R-MICA*001, C1R-MICA*004, C1R-MICA*007 and C1R-MICA*008 cells (see FIGS. 3A, 3B and 3C for antibodies 9C10, 20C6 and 16A8 respectively). […] EC50 values are shown in Table C in μg/ml (calculated using a 3-parameter logistic fit).

[2] = biological target: T2, MICA*001 extracellular domain …; test: ELISA, 3 µg/ml recombinant protein coated
Protocol: 3 μg/ml of the indicated MICA recombinant proteins were coated overnight in 96-well plates in PBS 1× at 4° C. All subsequent steps were performed at room temperature. After washes with PBS 1×/Tween 0.05%, plates were saturated for an additional 2 hours in PBS 1×/BSA 1%. Two additional washes were performed prior adding the tested anti-MICA mAb in PBS 1×/BSA 1% for 2 hours. Antibodies were washed and a horseradish peroxidase conjugated goat polyclonal anti-mouse IgG (GAM-HRP) in PBS 1×/BSA 1% was added for 1 hour. Final washing steps were performed and TMB substrate was added to reveal the ELISA (5 to 20 min in the dark) and 1M HCl was added to stop the enzymatic reaction. O.D. was measured at 450 nm.
9C10 binds to MICA extracellular domain recombinant-protein but not MICA extracellular domain α3 recombinant protein. Antibody 16A8, however, bound to both MICA extracellular domain recombinant protein […] MICA extracellular domain α3 recombinant protein. Therefore, it can be concluded from this ELISA experiment that the binding site on MICA of 9C10 antibodies includes the α1 and/or α2 domains while antibody 16A8 binds to MICA within the α3 domain. […] BAMO1 is a commercially available anti-MICA specific for α1α2 domain and BAMO3 is a commercially available anti-MICA specific for α3 domain.

[3] = biological target: T3, MICA*001 expressed on transfected cells; test: flow cytometry on C1R-MICA*001 cells, 3-parameter logistic fit
Protocol: as §1, §2, §3

[4] = biological target: T4, MICA*007 expressed on C1R transfectant …; test: flow cytometry on C1R-MICA*007 cells, 3-parameter logistic fit
Protocol: as §1, §2, §3

Binder	EC50 [1]	binding result [2]	EC50 [3]	EC50 [4]
antibody 16A8 (antibody, V domains shown, Murine hybridoma antibody of IgG2a isotype as tested; also called 16A8-Biot) VH: EVQLVESGGGLVKPGGSLKLSCAASGFTFSRYAMSWVRQTPEKRLEWVATIFSGGSYTYYPDSVKGRFTISRDNANNTLYLQMSSLKAEDTAMYFCARPNWERTFDYWGQGTTLTVSS VL: not shown	0.31 µg/mL	binds	1.18 µg/mL	0.74 µg/mL
antibody 9C10 (antibody, V domains shown, Biotinylated when captured in the SPR assays (9C10-Biot); the sites are not given., Murine hybridoma antibody of IgG2b isotype as tested; also called 9C10-Biot) VH: QVQLQQPGAELVRPGTSVNLSCKASGYSFTRYWMNWVKQRPGQGLEWIGMIHPSDSETRLNQKFKDKATLTVDKSSSTAYMQLSSPTSEDSAVYYCGYGNFFYVMDYWGQGTSVTVSS VL: DILLTQSPAILSVSPGERVSFSCRASQSIGTSIHWYQQRTNGSPRLLIKFASESISGIPSRFSGSGSGTDFTLNINSVESEDIADYYCQQSNFWPFTFGSGTKLEVK	0.2 µg/mL	binds	3.15 µg/mL	7.93 µg/mL
